Key:
bglg_ecoli bglG [1] = biological target: bglg_ecoli bglG (UniProt P11989)
bglg_ecoli bglG [2] = biological target: bglg_ecoli bglG (UniProt P11989); remark: listed apart in the source
bglg_ecoli bglG [3] = biological target: bglg_ecoli bglG (UniProt P11989); remark: listed apart in the source

bglg_ecoli bglG, sequence (P11989 whole entry): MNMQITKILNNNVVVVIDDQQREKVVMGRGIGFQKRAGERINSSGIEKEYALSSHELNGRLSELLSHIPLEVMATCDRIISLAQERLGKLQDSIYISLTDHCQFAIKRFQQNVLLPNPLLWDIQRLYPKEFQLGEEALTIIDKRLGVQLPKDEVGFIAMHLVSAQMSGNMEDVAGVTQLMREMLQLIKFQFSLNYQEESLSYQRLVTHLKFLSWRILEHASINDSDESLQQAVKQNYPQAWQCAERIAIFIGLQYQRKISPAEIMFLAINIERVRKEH

Row | Substance | effect of a mutation on the interaction (bglg_ecoli bglG [1]) | effect of a mutation on the interaction (bglg_ecoli bglG [2]) | effect of a mutation on the interaction (bglg_ecoli bglG [3])
1 | Phosphoenolpyruvate-protein phosphotransferase (Escherichia coli (strain K12)), P08839 H189A | disrupting interaction | decreasing interaction | 
2 | Phosphocarrier protein HPr (Escherichia coli (strain K12)), P0AA04 H15A |  |  | increasing interaction
